Results reported in patent publication US20220112295A1 (Novo Nordisk, published 2022).

T1: native cynomolgus monkey CD30L on activated T cells (cynomolgus monkey, UniProt A0A7N9CVX7 1-234)
T1 construct: whole, on cells; also called cynomologous CD30L
T1 sequence: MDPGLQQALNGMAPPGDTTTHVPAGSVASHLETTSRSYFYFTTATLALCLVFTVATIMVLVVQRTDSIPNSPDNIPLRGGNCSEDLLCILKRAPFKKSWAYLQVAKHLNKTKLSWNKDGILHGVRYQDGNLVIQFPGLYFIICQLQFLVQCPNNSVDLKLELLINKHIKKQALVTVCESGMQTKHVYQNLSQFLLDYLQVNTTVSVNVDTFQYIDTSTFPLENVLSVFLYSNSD

T2: native human CD30L expressed on Ramos cells (human, UniProt P32971 1-234)
T2 construct: It is used here for the native protein on human B cell lines; also called huCD30L; Native huCD30L
T2 sequence: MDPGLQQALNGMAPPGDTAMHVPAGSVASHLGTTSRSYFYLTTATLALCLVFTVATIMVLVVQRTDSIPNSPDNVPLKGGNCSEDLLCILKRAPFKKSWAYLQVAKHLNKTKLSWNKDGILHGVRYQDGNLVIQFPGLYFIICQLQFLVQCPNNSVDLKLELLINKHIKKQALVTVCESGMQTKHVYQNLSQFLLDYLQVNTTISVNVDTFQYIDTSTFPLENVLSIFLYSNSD

T3: cyno CD30L LZ (cynomolgus monkey, UniProt A0A7N9CVX7 63-234)
T3 sequence: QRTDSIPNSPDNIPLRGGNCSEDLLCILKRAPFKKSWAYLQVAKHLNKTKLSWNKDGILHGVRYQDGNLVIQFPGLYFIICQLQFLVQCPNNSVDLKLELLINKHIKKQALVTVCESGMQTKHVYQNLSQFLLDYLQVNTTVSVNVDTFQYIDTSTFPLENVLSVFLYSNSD

T4: mouse CD30L (mouse, UniProt P32972 68-239, limits assumed)
T4 construct: The form tested is not described
T4 sequence (looked up): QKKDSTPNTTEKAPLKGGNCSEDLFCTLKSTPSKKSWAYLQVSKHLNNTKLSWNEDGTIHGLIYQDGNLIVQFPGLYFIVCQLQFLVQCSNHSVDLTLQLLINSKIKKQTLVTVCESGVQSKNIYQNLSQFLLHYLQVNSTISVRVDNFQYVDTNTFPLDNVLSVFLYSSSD

B1: Antibody A (antibody, V domains shown)
VH: QVQLQESGPGLVKPSETLSLTCTVSGGSISSYIWSWIRQPAGKGLEWIGRIYASGNTNYNPSLKSRVTMSVDTSKNQFSLKLSSMTAADTAVYYCARDYRVAGTYYYYYGLDVWGQGTTVTVSS
VL: QSALTQPASVSGSPGQSITISCTGTSSDVGVYDYVSWYQQHPGKAPKLMIYEVSNRPSGVSNRFSGSKSGNTASLTISGLQTEDEADYYCSSYTSRSTWVFGGGTKLTVL
notes: Human antibody (XenoMouse); also called mAb A; anti-hCD30L A
B2: Antibody B (antibody, V domains shown)
VH: QVQLQESGPGLVKPSETLSLTCTVSGGSISSYYWTWIRQPAGKGLEWIGRIYTSGITNYNPSLKSRVTMSVDTSKNQFSLKLSSVTAADTAVYYCARERVVGASRYYYYGVDVWGQGTTVTVSS
VL: QSALTQPASVSGSPGQSITISCTGTSSDVGLYNYVSWYQQHPDKAPKLMIFEVNNRPSGVSNRFSGSNSGNTASLTISGLQAEDEADYYCSSYTSSSTWVFGGGTKLTVL
notes: also called mAb B
B3: Antibody D (antibody, V domains shown)
VH: QVQLQESGPGLVKPSETLSLTCTVSGGSISSYSWSWIRQPAGKGLEWIGRTSTSGRNNYNPSLKSRVTMSVDTSKNQFSLKLNSVTAADTAVYYCARDFTIAARRYYYYGMDVWGQGTTVTVSS
VL: QSALTQPASVSGSPGQSITISCTGTSSDIGLYNYVSWYQQHPGKAPKLIIYEVINRPSGVSNRFSGSESGNTASLTISGLQAEDEANYYCSSYTSSSTWVFGGGTKLTVL
notes: also called mAb D
B4: Antibody F (antibody, V domains shown)
VH: QVQLQESGPGLVKPSETLSLTCTVSGGSISSYYWSWIRQPAGKGLEWIGRIFASGSTNYNPSLRSRVTMSRDTSKNQFSLKLSSVTAADTAVYYCAKERVGVQDYYHYSGMDVWGQGTTVTVSS
VL: QSALTQPASVSGSPGQSITISCTGTSSDVGLYNYVSWYQQQPGKAPKLMIYEVSKRPSGVSNRFSGSTSGNTASLTISGLQADDEADYSCSSYTSSSTWVFGGGTKLTVL
notes: also called mAb F
B5: Antibody C (antibody, V domains shown)
VH: QVQLQESGPGLVKPSETLSLTCTVSGGSISSYYWTWIRQPAGKGLEWIGRIYTSGITNYNPSLKSRVTMSVDTSKNQFSLKLSSVTAADTAVYYCARERVVGASRYYYYGVDVWGQGTTVTVSS
VL: QSALTQPASVSGSPGQSITISCTGTSSDIGLYDYVSWYQQHPDRAPKLIIFEVNNRPSGVSYRFSGSNSGNTASLTISGLQAEDEADYYCSSYTSSSTWVFGGGTKLTVL
notes: also called mAb C
B6: Antibody E (antibody, V domains shown)
VH: QVQLQESGPRLVKPSETLSLTCTVSGGSITNNYWSWIRQPAGKGLEWIGRVYSSGLTNYKPSLKSRVTMSVDTSKNQFSLRLNSVTAADTAVYYCARERATVTTRYHYDGMDVWGQGTSVTVSS
VL: QSALTQPASVSGSPGQSITISCTGSSSDIGTYNYVSWYQQYPGKAPELMIYEVNNRPSGVSDRFSGSTSGNTASLTISGLQANDEADYYCSSYSSSSTWVFGGGTKLTVL
notes: also called mAb E

How the values were obtained:
[1] = target: T1, native cynomolgus monkey CD30L on …; test: FACS, antibody at 50 ug/mL, inhibition of huCD30.Fc-His binding to activated cynomolgus T cells
Experimental: Cynomologous activated T cells were prepared by isolating peripheral blood mononuclear cells (PBMC) from heparinized cynomolgus monkey blood by density centrifugation over Isolymph (2000 rpm. for 20 minutes). PBMC were resuspended in 25 mLs of PBS, added to 300 μl of a 50% solution of 2-Aminoethylisothiouronium bromide (AET)-treated sheep erythrocytes and centrifuged at […] at 4° C. for 10 minutes. Pelleted cells were incubated at 4° C. for a further 20 minutes, gently resuspended and centrifuged over Isolymph. Supernatant was removed down to the T cell/erythrocyte pellet. The pellet was then resuspended in 25 mL of lyses buffer (0.85% ammonium chloride in water) and incubated at 37° C. for 10 minutes. The resultant T cells were pelleted and washed x2 in culture medium (RPMI-1640 medium +10% heat-inactivated fetal bovine serum) and then cultured ([…]) at 37° C. for 18 hr in the presence of 10 ng/mL Phorbol Myristate Acetate (PMA; Sigma Chemicals, St Louis, Mo.) and 500 ng/mL lonornycin (Calbiochem, San Francisco, Calif.). At the end of the culture period, cynomolgus T cells were counted and washed 1× with PBS and incubated with 2% Goat serum, 1% Rabbit serum and 0.1% Human serum in PBS for 30 minutes at […]. Cells were then stained with anti-huCD30L antibodies as described above for human Ramos cells.
The antibodies were also screened for ability to block binding of human CD30L to a soluble human CD30. c molecule. Briefly, human Ramos cells or activated cynomolgus monkey T cells were incubated with anti-CD30L IgGs at 50 μg/mL in blocking buffer for 30 minutes at 4° C. Soluble huCD30. Fc-His was then added at a final concentration of 2.5 ug/mL (30 μL/well) and incubated for 30 minutes at 4° C. Cells were washed ×2 with PBS and incubated with 5 μg/mL of a mouse anti-His monoclonal antibody (30μL/well in blocking buffer) and incubated for 30 minutes at 4° C. After washing ×2 with PBS, cells were incubated with anti-mouse IgG-PE (1:50 in PBS; BD Pharmingen, San Diego, Calif.) for a further 30 minutes at […]. Cells were then washed ×2 with PBS and prepared for FACs analysis.

[2] = target: T2, native human CD30L expressed on Ramos …; test: FACS, native human CD30L on Ramos cells
Experimental: The supernatants were purified and recombinant antibodies were expressed as IgG1 and IgG2 constructs. The antibodies were rescreened for binding to native human and cynomologous monkey CD30L. Briefly, human Burkitt's lymphoma Ramos cells (3×10⁵/well) were incubated in round-bottomed 96-well microtiter plates (Costar® 96 well plate (Corning; Acton, Mass.) with a titration (10 μg/mL to 3.2 ng/mL final concentration) of anti-CD30L IgG antibodies in blocking buffer (PBS containing 0.02% sodium azide, 2% normal goat serum and 1% normal rabbit serum). Human […] fusion protein was included as a positive control for binding. Cells were incubated for 30 minutes at 4° C. then washed ×2 with PBS and incubated for a further 30 minutes at 4° C. with 30 μL/well of anti-hu IgG-biotin (1:50 in blocking buffer; Jackson Immunoresearch, West Grove, Pa.). After washing ×2 with PBS, cells were incubated for 30 minutes at 4° C. with 30 μL/well (1:50 dilution in PBS) of Streptavidin-Phycoerythrin (PE; Molecular Probes, Eugene, Oreg.). Cells were washed 2× with PBS and prepared for FACs analysis.

cyno CD30L LZ = target: T3, cyno CD30L LZ; test: cell-based or functional assay
[3] = target: T2, native human CD30L expressed on Ramos …; test: cell-based or functional assay
mouse CD30L = target: T4, mouse CD30L; test: not described

| Binder | % inhibition [1] | EC50 [2] | IC50, inhibition of IL-8 release (K299 single cell assay with cyno CD30L LZ) (cyno CD30L LZ) | IC50, inhibition of IL-8 release (K299/Ramos dual cell assay) [3] | binding result (mouse CD30L) |
| --- | --- | --- | --- | --- | --- |
| B1 | 77% | 1.7 nM | 2 nM | 0.028 nM | no binding |
| B2 | 88% | 3.1 nM | 5.6 nM | 0.072 nM | no binding |
| B3 | 84% | 3.3 nM | 5.4 nM | 0.062 nM | no binding |
| B4 | 97% | 2.3 nM | 5.5 nM | 0.06 nM | no binding |
| B5 | 83% | 1.7 nM | 3.9 nM | 0.036 nM | no binding |
| B6 | 87% | 3.3 nM | 5.4 nM | 0.045 nM | no binding |
